Test results taken from patent publication US20180147257A1.

Tests used:
Assay in all cases: cell-based or functional assay
LTβR on YT-1 cells = LTβR on YT-1 cells (UniProt P36941)
FLT1 on YT-1 cells = FLT1 on YT-1 cells (UniProt P17948)
ROR2 on YT-1 cells = ROR2 on YT-1 cells (UniProt Q01974)
CD163 on YT-1 cells = CD163 on YT-1 cells (UniProt Q86VB7)
HLA-E on YT-1 cells = HLA-E on YT-1 cells (UniProt P13747)
HLA-E on YT-1 cells, sequence (P13747 22-358 limits assumed): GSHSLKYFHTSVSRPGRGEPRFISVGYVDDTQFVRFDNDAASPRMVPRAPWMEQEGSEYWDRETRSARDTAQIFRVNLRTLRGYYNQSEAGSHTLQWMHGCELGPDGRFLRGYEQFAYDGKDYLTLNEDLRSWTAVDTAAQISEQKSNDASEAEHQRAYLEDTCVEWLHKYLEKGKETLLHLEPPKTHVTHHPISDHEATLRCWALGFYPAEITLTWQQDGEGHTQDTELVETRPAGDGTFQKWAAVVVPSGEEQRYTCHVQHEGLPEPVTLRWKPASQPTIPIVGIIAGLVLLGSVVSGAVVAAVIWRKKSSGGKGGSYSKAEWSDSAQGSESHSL

LTβR on YT-1 cells, sequence (P36941 31-435 limits assumed): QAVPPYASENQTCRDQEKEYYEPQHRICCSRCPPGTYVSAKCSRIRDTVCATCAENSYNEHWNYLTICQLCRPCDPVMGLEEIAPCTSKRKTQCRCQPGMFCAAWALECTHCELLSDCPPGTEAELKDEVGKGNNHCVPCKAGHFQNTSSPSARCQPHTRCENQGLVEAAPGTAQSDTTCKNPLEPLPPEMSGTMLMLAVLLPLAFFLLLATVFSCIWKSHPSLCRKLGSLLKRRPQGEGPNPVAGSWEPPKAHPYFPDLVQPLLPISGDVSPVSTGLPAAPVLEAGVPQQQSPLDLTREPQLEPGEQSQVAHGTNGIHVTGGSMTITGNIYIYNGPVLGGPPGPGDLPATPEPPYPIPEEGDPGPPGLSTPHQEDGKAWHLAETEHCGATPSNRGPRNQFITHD
ROR2 on YT-1 cells, sequence (Q01974 34-943 limits assumed): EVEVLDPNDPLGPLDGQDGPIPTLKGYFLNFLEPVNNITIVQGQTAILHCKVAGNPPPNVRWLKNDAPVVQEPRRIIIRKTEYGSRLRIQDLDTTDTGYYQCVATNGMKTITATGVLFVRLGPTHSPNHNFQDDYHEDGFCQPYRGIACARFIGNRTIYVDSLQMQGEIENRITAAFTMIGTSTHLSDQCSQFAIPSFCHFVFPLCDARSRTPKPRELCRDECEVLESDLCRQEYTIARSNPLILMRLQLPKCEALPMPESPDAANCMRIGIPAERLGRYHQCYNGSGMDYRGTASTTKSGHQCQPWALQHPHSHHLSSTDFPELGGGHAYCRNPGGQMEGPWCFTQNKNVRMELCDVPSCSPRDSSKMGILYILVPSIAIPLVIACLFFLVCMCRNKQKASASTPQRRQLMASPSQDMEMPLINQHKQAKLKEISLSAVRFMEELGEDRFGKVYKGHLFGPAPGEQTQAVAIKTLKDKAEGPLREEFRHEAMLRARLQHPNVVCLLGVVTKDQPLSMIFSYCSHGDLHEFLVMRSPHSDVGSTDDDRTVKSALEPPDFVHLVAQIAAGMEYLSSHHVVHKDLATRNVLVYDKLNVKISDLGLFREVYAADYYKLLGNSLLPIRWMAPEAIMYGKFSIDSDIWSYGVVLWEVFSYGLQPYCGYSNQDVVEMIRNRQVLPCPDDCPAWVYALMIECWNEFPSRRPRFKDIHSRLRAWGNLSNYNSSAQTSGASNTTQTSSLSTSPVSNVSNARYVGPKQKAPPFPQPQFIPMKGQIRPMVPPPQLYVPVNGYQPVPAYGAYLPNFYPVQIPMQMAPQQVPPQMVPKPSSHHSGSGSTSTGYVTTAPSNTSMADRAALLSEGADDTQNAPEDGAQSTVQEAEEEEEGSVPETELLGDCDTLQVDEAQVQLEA
FLT1 on YT-1 cells, sequence (P17948 27-1338 limits assumed): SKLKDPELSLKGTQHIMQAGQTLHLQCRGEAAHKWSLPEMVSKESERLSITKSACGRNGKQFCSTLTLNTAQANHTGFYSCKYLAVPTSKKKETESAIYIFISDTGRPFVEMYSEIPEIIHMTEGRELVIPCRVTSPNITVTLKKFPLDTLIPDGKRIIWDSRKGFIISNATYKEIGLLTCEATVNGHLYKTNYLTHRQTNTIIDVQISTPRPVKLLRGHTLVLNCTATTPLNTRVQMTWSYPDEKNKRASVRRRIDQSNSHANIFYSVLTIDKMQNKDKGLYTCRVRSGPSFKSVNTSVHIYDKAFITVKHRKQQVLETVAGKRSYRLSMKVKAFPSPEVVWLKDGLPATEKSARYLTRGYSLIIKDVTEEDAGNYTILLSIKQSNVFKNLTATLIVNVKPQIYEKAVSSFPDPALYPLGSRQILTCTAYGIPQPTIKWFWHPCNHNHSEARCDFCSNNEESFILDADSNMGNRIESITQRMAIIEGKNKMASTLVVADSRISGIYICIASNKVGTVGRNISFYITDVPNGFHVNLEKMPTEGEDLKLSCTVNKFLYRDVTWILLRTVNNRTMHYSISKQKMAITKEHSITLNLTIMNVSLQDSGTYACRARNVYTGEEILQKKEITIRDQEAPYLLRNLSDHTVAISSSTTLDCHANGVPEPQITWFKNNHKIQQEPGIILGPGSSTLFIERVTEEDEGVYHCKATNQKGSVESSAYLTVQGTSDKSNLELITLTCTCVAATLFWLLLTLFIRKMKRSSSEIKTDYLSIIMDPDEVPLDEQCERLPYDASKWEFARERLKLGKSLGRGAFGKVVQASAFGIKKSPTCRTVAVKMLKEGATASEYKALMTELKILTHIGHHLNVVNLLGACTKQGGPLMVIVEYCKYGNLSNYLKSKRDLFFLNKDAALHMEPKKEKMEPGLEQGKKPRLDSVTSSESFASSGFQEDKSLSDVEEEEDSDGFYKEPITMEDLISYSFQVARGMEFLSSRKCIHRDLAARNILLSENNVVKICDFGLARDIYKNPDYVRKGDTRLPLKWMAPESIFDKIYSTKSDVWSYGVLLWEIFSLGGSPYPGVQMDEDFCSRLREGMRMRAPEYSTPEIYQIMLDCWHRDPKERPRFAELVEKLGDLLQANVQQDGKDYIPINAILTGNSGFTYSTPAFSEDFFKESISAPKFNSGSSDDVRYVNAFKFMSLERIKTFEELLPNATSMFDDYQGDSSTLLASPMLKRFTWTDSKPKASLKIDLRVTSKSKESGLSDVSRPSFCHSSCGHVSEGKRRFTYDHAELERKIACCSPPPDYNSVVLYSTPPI
CD163 on YT-1 cells, sequence (Q86VB7 42-1156): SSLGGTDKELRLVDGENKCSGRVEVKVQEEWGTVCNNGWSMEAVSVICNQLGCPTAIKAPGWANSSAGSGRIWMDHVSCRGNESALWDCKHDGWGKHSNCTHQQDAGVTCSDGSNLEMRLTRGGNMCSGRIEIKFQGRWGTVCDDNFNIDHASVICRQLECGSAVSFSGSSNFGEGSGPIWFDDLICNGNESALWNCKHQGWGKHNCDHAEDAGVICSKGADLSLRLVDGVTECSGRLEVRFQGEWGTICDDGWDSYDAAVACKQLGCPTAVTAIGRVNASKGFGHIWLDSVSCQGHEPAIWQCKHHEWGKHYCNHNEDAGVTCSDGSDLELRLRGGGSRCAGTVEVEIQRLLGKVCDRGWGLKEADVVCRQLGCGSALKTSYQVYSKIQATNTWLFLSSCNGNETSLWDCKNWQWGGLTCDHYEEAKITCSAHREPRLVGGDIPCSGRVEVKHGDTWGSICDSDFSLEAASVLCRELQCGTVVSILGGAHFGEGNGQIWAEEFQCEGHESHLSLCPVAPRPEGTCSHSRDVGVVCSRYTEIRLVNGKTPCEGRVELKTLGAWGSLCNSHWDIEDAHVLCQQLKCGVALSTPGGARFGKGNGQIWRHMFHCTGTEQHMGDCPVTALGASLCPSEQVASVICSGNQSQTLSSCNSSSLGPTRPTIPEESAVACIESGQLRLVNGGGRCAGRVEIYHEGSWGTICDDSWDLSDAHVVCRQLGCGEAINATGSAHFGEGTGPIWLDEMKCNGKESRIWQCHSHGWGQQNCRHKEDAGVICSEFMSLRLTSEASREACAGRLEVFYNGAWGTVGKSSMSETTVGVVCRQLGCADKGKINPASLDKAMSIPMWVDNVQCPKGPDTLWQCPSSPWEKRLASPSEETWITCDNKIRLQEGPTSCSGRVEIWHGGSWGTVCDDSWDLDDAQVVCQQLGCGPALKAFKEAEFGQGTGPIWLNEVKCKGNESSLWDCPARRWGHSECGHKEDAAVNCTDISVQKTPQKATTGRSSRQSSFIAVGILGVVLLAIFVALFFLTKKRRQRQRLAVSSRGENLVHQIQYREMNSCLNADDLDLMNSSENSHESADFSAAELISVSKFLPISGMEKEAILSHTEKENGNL

fluorescently coupled BTN3A ectodomain fused to the Fc fragment of human IgG4 (Fc fusion)
Log 10 fold change of sgRNAs in YT-1 GeCKO library cells sorted for non-binding to BTN3A-IgG4 (Log 10 fold change) (LTβR on YT-1 cells): 3.69
Log 10 fold change of sgRNAs in YT-1 GeCKO library cells sorted for non-binding to BTN3A-IgG4 (Log 10 fold change) (FLT1 on YT-1 cells): 3.7
Log 10 fold change of sgRNAs in YT-1 GeCKO library cells sorted for non-binding to BTN3A-IgG4 (Log 10 fold change) (ROR2 on YT-1 cells): 3.54
Log 10 fold change of sgRNAs in YT-1 GeCKO library cells sorted for non-binding to BTN3A-IgG4 (Log 10 fold change) (CD163 on YT-1 cells): 3.56
Log 10 fold change of sgRNAs in YT-1 GeCKO library cells sorted for non-binding to BTN3A-IgG4 (Log 10 fold change) (HLA-E on YT-1 cells): 3.66
